Test [1] addresses T1, human PCSK9 variant a (human, UniProt Q8NBP7 31-692).
T1 construct: also called Human PCSK9 var A; hPCSK9a
Description: ProteOn SPR, captured antibody, pH 7.6.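 Further: antibodies captured via anti-human Fc on a GLC sensor chip, PCSK9 binding sensorgrams fitted to a 1:1 Langmuir model giving on and off rates, with KD derived from them.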
Description: (§1) The SPR runs were performed using a GLC chip (Bio-Rad) immobilised with anti-human Fc antibodies. The analyte human antibodies were captured on the chip surface at 2 ug/ml. […] The chip surface was regenerated using two injections of 10 mM Glycine pH 1.5 for 160 seconds at 30 μl/min. The sensorgrams were then fitted with a 1:1 model (Langmuir kinetic model) where ka and kd are fitted and KD was calculated by the ProteOn software.

In test [2] the target is T2, human PCSK9 variant b (human, UniProt Q8NBP7 31-692).
T2 construct: also called Human PCSK9 var B; hPCSK9b
Description: ProteOn SPR, captured antibody, pH 7.6.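 Further: antibodies captured via anti-human Fc on a GLC sensor chip, PCSK9 binding sensorgrams fitted to a 1:1 Langmuir model giving on and off rates, with KD derived from them.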
Description: as §1

Test [3] has as its target T3, human PCSK9 reference (human, UniProt Q8NBP7 31-692). Description: ProteOn SPR, captured antibody, pH 7.6.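 Further: antibodies captured via anti-human Fc on a GLC sensor chip, PCSK9 binding sensorgrams fitted to a 1:1 Langmuir model giving on and off rates, with KD derived from them.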
Description: as §1
In test [4] the target is T4, cynomolgus monkey PCSK9 (cynomolgus monkey, UniProt A8T662 31-692 (Macaca nemestrina entry), limits assumed).
T4 construct: also called Cyno PCSK9; cynoPCSK9
Description: ProteOn SPR, captured antibody, pH 7.6.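 Further: antibodies captured via anti-human Fc on a GLC sensor chip, PCSK9 binding sensorgrams fitted to a 1:1 Langmuir model giving on and off rates, with KD derived from them.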
Description: as §1

In test [5] the target is T5, mouse PCSK9 (mouse, UniProt Q80W65 35-694, limits assumed).
T5 construct: also called mPCSK9; PCSK9 mouse
Nature of the test: ProteOn SPR, captured antibody, pH 7.6.
Description: as §1

In test [6] the target is T6, human PCSK9 D374Y gain-of-function mutant (human, UniProt Q8NBP7 31-692).
T6 construct: It was AF647-labelled in the HepG2 cell-based assay and unlabelled in SPR; also called Human PCSK9 GOF; hPCSK9 GOF
Description: ProteOn SPR, captured antibody, pH 7.6.
Description: as §1

In test [7] the target is T1, human PCSK9 variant a. Nature of the test: ProteOn SPR, captured antibody, pH 5.8.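 Further: antibodies captured on a GLC chip coated with anti-human Fc, rate constants from a 1:1 Langmuir fit of the sensorgrams, Kd derived from the fitted rates.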
Description: as §1
Test [8] has as its target T2, human PCSK9 variant b. Description: ProteOn SPR, captured antibody, pH 5.8.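 Further: antibodies captured on a GLC chip coated with anti-human Fc, rate constants from a 1:1 Langmuir fit of the sensorgrams, Kd derived from the fitted rates.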
Description: as §1
Test [9] concerns the target T3, human PCSK9 reference. Nature of the test: ProteOn SPR, captured antibody, pH 5.8.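 Further: antibodies captured on a GLC chip coated with anti-human Fc, rate constants from a 1:1 Langmuir fit of the sensorgrams, Kd derived from the fitted rates.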
Description: as §1
For test [10], the target named is T4, cynomolgus monkey PCSK9. Nature of the test: ProteOn SPR, captured antibody, pH 5.8.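 Further: antibodies captured on a GLC chip coated with anti-human Fc, rate constants from a 1:1 Langmuir fit of the sensorgrams, Kd derived from the fitted rates.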
Description: as §1
Test [11] addresses T5, mouse PCSK9. Nature of the test: ProteOn SPR, captured antibody, pH 5.8.
Description: as §1
In test [12] the target is T6, human PCSK9 D374Y gain-of-function …. Description: ProteOn SPR, captured antibody, pH 5.8.
Description: as §1
For test [13] the target is unchanged. Nature of the test: cell-based or functional assay.
The target is the same in test [14]. Description: cell-based or functional assay. The source holds these as a separate data set.
For test [15] the target is unchanged. Nature of the test: cell-based or functional assay. The source holds these as a separate data set.
The target is the same in test [16]. Description: cell-based or functional assay. This is another data set of the same source.

Changes are numbered by the printed parent chain. Like-named read-outs stand apart in the source and are kept apart here.

T5 sequence (Q80W65 35-694 limits assumed): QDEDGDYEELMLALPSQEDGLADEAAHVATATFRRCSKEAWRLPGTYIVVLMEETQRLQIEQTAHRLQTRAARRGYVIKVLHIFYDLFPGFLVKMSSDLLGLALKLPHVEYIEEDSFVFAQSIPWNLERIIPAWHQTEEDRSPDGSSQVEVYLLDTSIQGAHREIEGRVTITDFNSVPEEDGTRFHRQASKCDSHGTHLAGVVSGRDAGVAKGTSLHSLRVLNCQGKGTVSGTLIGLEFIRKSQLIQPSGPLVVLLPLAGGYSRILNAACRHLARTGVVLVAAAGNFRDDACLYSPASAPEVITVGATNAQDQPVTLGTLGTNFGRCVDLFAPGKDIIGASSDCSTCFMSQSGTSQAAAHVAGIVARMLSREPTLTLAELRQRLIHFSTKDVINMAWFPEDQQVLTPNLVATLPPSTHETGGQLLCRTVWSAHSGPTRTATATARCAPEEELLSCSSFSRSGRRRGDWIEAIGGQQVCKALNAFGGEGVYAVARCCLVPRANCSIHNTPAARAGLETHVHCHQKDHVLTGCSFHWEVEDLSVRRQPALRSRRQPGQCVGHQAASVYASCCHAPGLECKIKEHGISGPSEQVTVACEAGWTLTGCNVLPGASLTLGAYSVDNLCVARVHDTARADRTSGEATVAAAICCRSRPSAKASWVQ
T4 sequence (A8T662 31-692 limits assumed): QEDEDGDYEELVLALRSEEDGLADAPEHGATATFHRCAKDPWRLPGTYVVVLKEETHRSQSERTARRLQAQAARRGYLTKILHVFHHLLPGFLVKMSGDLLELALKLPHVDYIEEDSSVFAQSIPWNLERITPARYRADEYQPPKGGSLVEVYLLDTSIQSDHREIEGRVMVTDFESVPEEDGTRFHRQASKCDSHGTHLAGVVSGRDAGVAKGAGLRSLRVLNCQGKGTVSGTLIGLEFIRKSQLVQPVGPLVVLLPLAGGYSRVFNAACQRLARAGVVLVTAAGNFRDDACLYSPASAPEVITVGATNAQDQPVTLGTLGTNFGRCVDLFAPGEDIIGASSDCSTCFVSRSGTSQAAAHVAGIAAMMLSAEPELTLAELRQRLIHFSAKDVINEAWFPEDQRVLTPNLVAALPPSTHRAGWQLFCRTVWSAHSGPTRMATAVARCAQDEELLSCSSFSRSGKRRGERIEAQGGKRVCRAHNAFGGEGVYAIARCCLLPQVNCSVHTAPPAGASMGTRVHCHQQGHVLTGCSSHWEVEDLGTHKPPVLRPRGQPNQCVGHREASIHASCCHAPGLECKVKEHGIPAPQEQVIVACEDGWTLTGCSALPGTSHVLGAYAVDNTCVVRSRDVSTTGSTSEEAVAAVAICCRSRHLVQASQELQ

B1: CL-274698 (antibody, V domains shown)
VH: QVQLQESGPGLVKPSGTLSLTCAVSGGSISSSKWWSWVRQPPGKGLEWIGETHYSGSTNYNPSLKSRVTISVDKSKNQFSLKLRSVTAADTAVYYCARVGATENFWGQGTLVTVSS
VL: EIVLTQSPATLSLSPGERATLSCRASQSVFRYLAWYQQKPGQAPRLLIYDASTRATDIPARFSGSGSGTDFTLTISSLEPEDFAVYYCQQRSNWPPTFGQGTKVEIK
notes: Human antibody with a kappa light chain, derived from a PCSK9 knockout mouse
By Kd is commonly meant a measure of binding affinity in units of concentration. One may read the koff as the first-order rate constant of dissociation. The kon is a measure of how fast the partners come together. Consider B1, for which the dissociation constant Kd was found to be 99.8 pM with human PCSK9 variant a [1]; 91 pM with human PCSK9 variant b [2]; 92.9 pM with human PCSK9 reference [3]; 98.4 pM with cynomolgus monkey PCSK9 [4]; 273 pM with mouse PCSK9 [5]; 68.9 pM in test [6]. For the same molecule, the dissociation constant Kd came out at 30.9 pM with human PCSK9 variant a [7]; 26.2 pM in the test with human PCSK9 variant b [8]; 28.6 pM with human PCSK9 reference [9]; 29.7 pM in the test with cynomolgus monkey PCSK9 [10]; 103 pM with mouse PCSK9 [11]; 25 pM in test [12]. In addition, the off-rate constant (koff) was 0.000136 s⁻¹ in the test with human PCSK9 variant a [1]; 0.000127 s⁻¹ with human PCSK9 variant b [2]; 0.000125 s⁻¹ in the test with human PCSK9 reference [3]; 0.000108 s⁻¹ with cynomolgus monkey PCSK9 [4]; 0.000257 s⁻¹ with mouse PCSK9 [5]; 8.36e-05 s⁻¹ in test [6]. Besides, the koff in the test with human PCSK9 variant a [7] is 4.81e-05 s⁻¹; in the test with human PCSK9 variant b [8] it was 4.19e-05 s⁻¹; with human PCSK9 reference [9], 4.6e-05 s⁻¹; with cynomolgus monkey PCSK9 [10] it was 3.75e-05 s⁻¹; in the test with mouse PCSK9 [11], 0.000137 s⁻¹; in test [12], 3.83e-05 s⁻¹. The kon in the test with human PCSK9 variant a [1] is 1.37e+06 M⁻¹ s⁻¹; with human PCSK9 variant b [2] it was 1.39e+06 M⁻¹ s⁻¹; with human PCSK9 reference [3], 1.35e+06 M⁻¹ s⁻¹; with cynomolgus monkey PCSK9 [4], 1.1e+06 M⁻¹ s⁻¹; in the test with mouse PCSK9 [5], 941000 M⁻¹ s⁻¹; in test [6] it was 1.21e+06 M⁻¹ s⁻¹. Also, the on-rate constant (kon) is 1.56e+06 M⁻¹ s⁻¹ with human PCSK9 variant a [7]; 1.6e+06 M⁻¹ s⁻¹ with human PCSK9 variant b [8]; 1.6e+06 M⁻¹ s⁻¹ with human PCSK9 reference [9]; 1.26e+06 M⁻¹ s⁻¹ with cynomolgus monkey PCSK9 [10]; 1.33e+06 M⁻¹ s⁻¹ with mouse PCSK9 [11]; 1.53e+06 M⁻¹ s⁻¹ in test [12]. In test [13], the “IC50 (read off the curve)” value is approximately 4000 pM.

B2: CL-274711 (antibody, V domains shown)
VH: QVQLQESGPGLVKPSQTLSLTCTVSGGSISSGGYYWSWIRQHPGKGLEWIGHIFYSGSTYYNPSLKSRVTISVDTSKNQFSLKLNSVTAADTAVYYCASEGGYYDIPDVWGQGTTVTVSS
VL: B1 VL with F30S, R31N, Y49S, T53N, D57G, V85I, P96L, Q100G
notes: Human antibody with a kappa light chain, generated by immunising a PCSK9 knockout mouse
In the case of B2, the dissociation constant Kd with cynomolgus monkey PCSK9 [4] turned out to be 145 pM; with mouse PCSK9 [5], 889 pM; with cynomolgus monkey PCSK9 [10] it was 164 pM; in the test with mouse PCSK9 [11] it was 1260 pM.

B3: CL-148219 (antibody, V domains shown)
VH: QVHLQESGPGLVKPSETLSLTCTVSGGSISSYYWSWIRQYPGKGLEWIGYISYSGSSNYNPSLKRRVTISRDTSKNQFSLNLTSVIAADTAVYYCARNLMIRGAYGMDVWGQGTTVTVSS
VL: DTVMTQSPLSLPVTPGEPASISCRSSQSLLHSNGYNYLDWYLQKAGQSPQLLIYLGSNRASGVPDRFSGSVSGTDFTLKISRVEAEDVGIYYCMQALQTPFTFGPGTKVDIK
modifications: NLT motif in heavy chain framework 3 confirmed N-glycosylated by mass spectrometry
notes: Human antibody, captured through anti-human Fc in the SPR assay
As for B3, the equilibrium dissociation constant (Kd) with human PCSK9 variant a [1] came to 216 pM; in the test with human PCSK9 variant b [2] it was 215 pM; in the test with human PCSK9 reference [3], 205 pM; in the test with cynomolgus monkey PCSK9 [4] it was 296 pM; with mouse PCSK9 [5] it was 520 pM; in test [6], 245 pM. For the same molecule, the equilibrium dissociation constant (Kd) came to 426 pM with human PCSK9 variant a [7]; 412 pM in the test with human PCSK9 variant b [8]; 368 pM with human PCSK9 reference [9]; 345 pM with cynomolgus monkey PCSK9 [10]; 691 pM with mouse PCSK9 [11]; 431 pM in [12]. For the same molecule, the dissociation rate constant (koff) is 0.000234 s⁻¹ with human PCSK9 variant a [1]; 0.000225 s⁻¹ in the test with human PCSK9 variant b [2]; 0.00023 s⁻¹ with human PCSK9 reference [3]; 0.000284 s⁻¹ in the test with cynomolgus monkey PCSK9 [4]; 0.000411 s⁻¹ with mouse PCSK9 [5]; 0.000233 s⁻¹ in test [6]. Also, the off-rate (koff) with human PCSK9 variant a [7] is 0.000387 s⁻¹; in the test with human PCSK9 variant b [8], 0.000378 s⁻¹; with human PCSK9 reference [9], 0.000374 s⁻¹; with cynomolgus monkey PCSK9 [10], 0.000336 s⁻¹; with mouse PCSK9 [11], 0.000701 s⁻¹; in test [12], 0.000391 s⁻¹. The kon with human PCSK9 variant a [1] was 1.08e+06 M⁻¹ s⁻¹; in the test with human PCSK9 variant b [2], 1.05e+06 M⁻¹ s⁻¹; with human PCSK9 reference [3], 1.13e+06 M⁻¹ s⁻¹; with cynomolgus monkey PCSK9 [4], 958000 M⁻¹ s⁻¹; with mouse PCSK9 [5], 791000 M⁻¹ s⁻¹; in test [6], 949000 M⁻¹ s⁻¹. Moreover, the kon was found to be 908000 M⁻¹ s⁻¹ with human PCSK9 variant a [7]; 918000 M⁻¹ s⁻¹ in the test with human PCSK9 variant b [8]; 1.02e+06 M⁻¹ s⁻¹ in the test with human PCSK9 reference [9]; 975000 M⁻¹ s⁻¹ with cynomolgus monkey PCSK9 [10]; 1.01e+06 M⁻¹ s⁻¹ in the test with mouse PCSK9 [11]; 908000 M⁻¹ s⁻¹ in test [12]. The “IC50 (read off the curve)” value in test [14] was approximately 4000 pM; in [15], approximately 3000 pM.

B4: CL-148219 QLT mutant (antibody, V domains shown)
VH: B3 VH with N81Q
VL: B3 VL
On to B4, for which the Kd with human PCSK9 variant a [1] is 267 pM; with human PCSK9 variant b [2] it was 257 pM; with human PCSK9 reference [3] it was 272 pM; in the test with cynomolgus monkey PCSK9 [4], 352 pM; with mouse PCSK9 [5] it was 587 pM; in [6], 303 pM. Further, the Kd with human PCSK9 variant a [7] was found to be 712 pM; in the test with human PCSK9 variant b [8], 694 pM; with human PCSK9 reference [9], 667 pM; in the test with cynomolgus monkey PCSK9 [10] it was 568 pM; with mouse PCSK9 [11], 1430 pM; in [12], 753 pM. Further, the off-rate constant (koff) was 0.000229 s⁻¹ with human PCSK9 variant a [1]; 0.000221 s⁻¹ with human PCSK9 variant b [2]; 0.000226 s⁻¹ with human PCSK9 reference [3]; 0.000256 s⁻¹ with cynomolgus monkey PCSK9 [4]; 0.000352 s⁻¹ with mouse PCSK9 [5]; 0.000219 s⁻¹ in test [6]. The koff in the test with human PCSK9 variant a [7] stood at 0.000429 s⁻¹; in the test with human PCSK9 variant b [8], 0.000421 s⁻¹; in the test with human PCSK9 reference [9], 0.000415 s⁻¹; with cynomolgus monkey PCSK9 [10], 0.000331 s⁻¹; with mouse PCSK9 [11] it was 0.000675 s⁻¹; in test [12] it was 0.000456 s⁻¹. The on-rate constant (kon) was 856000 M⁻¹ s⁻¹ with human PCSK9 variant a [1]; 862000 M⁻¹ s⁻¹ with human PCSK9 variant b [2]; 833000 M⁻¹ s⁻¹ with human PCSK9 reference [3]; 728000 M⁻¹ s⁻¹ with cynomolgus monkey PCSK9 [4]; 600000 M⁻¹ s⁻¹ with mouse PCSK9 [5]; 721000 M⁻¹ s⁻¹ in test [6]. For the same molecule, the on-rate constant (kon) turned out to be 602000 M⁻¹ s⁻¹ with human PCSK9 variant a [7]; 607000 M⁻¹ s⁻¹ in the test with human PCSK9 variant b [8]; 622000 M⁻¹ s⁻¹ with human PCSK9 reference [9]; 584000 M⁻¹ s⁻¹ with cynomolgus monkey PCSK9 [10]; 472000 M⁻¹ s⁻¹ in the test with mouse PCSK9 [11]; 606000 M⁻¹ s⁻¹ in test [12]. Besides, in test [16], the “IC50 (read off the curve)” value is approximately 2000 pM.

B5: Alirocumab hIgG4PE (antibody, V domains shown)
VH: EVQLVESGGGLVQPGGSLRLSCAASGFTFNNYAMNWVRQAPGKGLDWVSTISGSGGTTNYADSVKGRFIISRDSSKHTLYLQMNSLRAEDTAVYYCAKDSNWGNFDLWGRGTLVTVSS
VL: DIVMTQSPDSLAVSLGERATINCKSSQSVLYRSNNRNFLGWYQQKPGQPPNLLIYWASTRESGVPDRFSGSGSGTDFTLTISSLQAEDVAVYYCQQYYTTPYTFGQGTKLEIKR
With B5, the “IC50 (read off the curve)” value in [14] was approximately 2000 pM.

(Values after patent publication US20220049017A1 (KYMAB, published 2022).)
